Experimental findings from patent US20030180744, “High affinity oligonucleotide ligands to growth factors” (GILEAD SCIENCES, INC., published 2003) are described below.

Changes are numbered by the printed parent chain.

B1: lib9-10 (ssRNA)
RNA: GGGGGAGAACGCGGAUCCUGUCUCCACCGCCGAUACUGGGGUUCCUGGGGCCCCUCCAUGCAGGAGGGGUGGUUCGGAGAAAGCUUCGCUCUAGAUCUCCCUUUAGUGAGGGUUA
modifications: 2'-NH2 U, 2'-F C
B2: lib1-20-3-82 (ssRNA)
RNA: GGGGGAGAACGCGGAUCCUGCUAGACCGAGGAUGCAAAGGGACAUGCAUUAGGGAAACCUAUGUAUAAGAACGCGGUCGCAG
modifications: 2'-F pyrimidines
B3: lib6-30 (ssRNA)
RNA: GGGGGAGAACGCGGAUCCUGCUAGACCGAGGAUGCAAAGGGACAUGCAUUAGGGAAACCUAUUAUAAGAACGCGGUCGCAGAAGCUUCGCUCUAGAUCUCCCUUUAGUGAGGGUUA
modifications: 2'-F pyrimidines
B4: lib3-45 (ssRNA)
RNA: GGGGGAGAACGCGGAUCCGGAAGUCUGGUCUUUGGGGAGUCCGCAUGGCCCUGGCGAAAGCUUCGCUCUAGAUCUCCCUUUAGUGAGGGUUA
modifications: 2'-NH2 pyrimidines
B5: lib1-20-5 (ssRNA)
RNA: GGGGGAGAACGCGGAUCCAAGAAUGUUCGGCCGCACGAGGUGACAGUGGUGCGGAUACGGACCGAUUGGGUUUGCCAAGCUUCGCUCUAGAUCUCCCUUUAGUGAGGGUUA
modifications: 2'-F pyrimidines
B6: lib8-9* (ssRNA)
RNA: GGGGGAGAACGCGGAUCCGCAAUCCCAGGCGCAUAGCUUCCGAGUAGACAGGAGGGAGGGGUGGAUGUGGCGUCUACUCGGCGUCGUGAAGCUUCGCUCUAGAUCUCCCUUUAGUGAGGGUUA
modifications: 2'-NH2-U, 2'-F-C
B7: lib6-23 (ssRNA)
RNA: GGGGGAGAACGCGGAUCCAAGCUUCGAGUAGACAGGAGGGAGGGGUGGAUGUGGAGUCUCGAGAAGCUUCGCUCUAGAUCUCCCUUUAGUGAGGGUUA
modifications: 2'-NH2 pyrimidines
B8: lib7-21 (ssRNA)
RNA: GGGGGAGAACGCGGAUCCGAGCAAUCCCGGGCGCAUAGCUUCCGAGGAGACAGGCGGGAGGGGUGGAUGUGGCGUCUCGAGAAGCUUCGCUCUAGAUCUCCCUUUAGUGAGGGUUA
modifications: 2'-F U, 2'-NH2 C
B9: lib2-6-4 (ssRNA)
RNA: B8 RNA with G29A, G47U, C55A, C73U
modifications: 2'-NH2 pyrimidines
B10: lib7-43 (ssRNA)
RNA: B8 RNA with G29A, G47U
modifications: 2'-F U, 2'-NH2 C
B11: lib5-48 (ssRNA)
RNA: GGGGGAGAACGCGGAUCCGGCAAUCCCAGGCGCAUAGCUUCCGAGUAGACAGGAGGGAGGGGUGGAUGUGGUGUACGAGGAAGCUUCGCUCUAGAUCUCCCUUUAGUGAGGGUUA
modifications: 2'-NH2 pyrimidines

The target in the first data set is T1, TGFβ1 (Homo sapiens, UniProt P01137 P01137:279-390). As to the kind of experiment: filter; not inhibitory. Particulars: tags: Genentech; biotinylated version used in bead assay; chain copies: 2.
T1 sequence (P01137 279-390, one chain of several): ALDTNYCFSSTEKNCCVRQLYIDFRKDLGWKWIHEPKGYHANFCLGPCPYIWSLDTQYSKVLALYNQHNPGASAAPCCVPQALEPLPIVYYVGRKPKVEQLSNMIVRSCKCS
As for B1, binding was put at a Kd of 1.1 nM. In other words, the single-digit nanomolar range. Same read-out and setting: the value for B2 was 6.1 nM; that for B3 was 8.8 nM; that for B4 was 1.9 nM. Same read-out and setting: for B5 the value was 46 nM.

The target in a further data set is T1, TGFβ1. As to the kind of experiment: cell_activity. Conditions: tags: Genentech or R&D Systems; chain copies: 2. The method, then:
MLEC-Pail/luc cells were plated at 3.2×10⁴ cells per well in a 96 well Falcon plate, in 100 μl of DME+10% fetal bovine serum overnight. Media was made from autoclaved water. The cells were washed three times ([…]) in serum free DME plus Solution A (1:1). Solution A is 30 mM Hepes pH 7.6, 10 mM glucose, 3.0 mM KCl, 131 mM NaCl, 1.0 mM disodium phosphate. Samples (100 μl) were added in DME containing 20 mM Hepes pH 7.5, and 0.1% BSA (Fluka, radioimmunoassay grade). All samples were in triplicate. After six hours at 37° C. in a 5% CO₂ incubator the media was removed and cells were washed three times (100 μl each) in cold PBS. Lysis buffer (75 μl) (Analytical Luminescence Laboratory) was added and the plates incubated on ice for 20 min. The plates were sealed and frozen at −80° C. until assayed. Samples (25 μl) were assayed for luciferase activity with the Enhanced Luciferase Assay Kit from Analytical Luminescence Laboratory (San Diego, Calif., USA) according to the manufacturer's instructions using the Berthold Microlumat LB96P luminometer.
Ligands tested for inhibition of TGFβ1 activity were tested at a minimum of five concentrations. The ligands were serially diluted in DME, 20 mM Hepes pH 7.5, 0.1% Fluka BSA in polypropylene tubes and an equal volume of media containing 12 pM TGFβ1 was added to each tube, vortexed and transferred to the cells without further incubation.
B6: it took 124 nM to reach half-maximal inhibition (IC50).

A further data set has as its target T1, TGFβ1. As to the kind of experiment: filter; not inhibitory in cell assay. Particulars: tags: Genentech; biotinylated version used in bead assay; chain copies: 2.
Take B7: the Kd (commonly the constant that tells how readily two partners part at equilibrium) stood at 3.4 nM.

For the molecule B8, the Kd was determined as 2.4 nM. On the same count and under the same terms, for B9 the value was 3.1 nM; for B10, 3.3 nM; for B11, 3.8 nM.
